This is an account of results in publication PMC10039067, “Temporal and spatial assembly of inner ear hair cell ankle link condensate through phase separation” (Nature Communications, 2023).

The chains are these.
B3: WHRN NPDZ12 (domain or fragment, UniProt Q9P202 33-377, looked up)
chain: RLLSANVRQLHQALTALLSEAEREQFTHCLNAYHARRNVFDLVRTLRVLLDSPVKRRLLPMLRLVIPRSDQLLFDQYTAEGLYLPATTPYRQPAWGGPDSAGPGEVRLVSLRRAKAHEGLGFSIRGGSEHGVGIYVSLVEPGSLAEKEGLRVGDQILRVNDKSLARVTHAEAVKALKGSKKLVLSVYSAGRIPGGYVTNHIYTWVDPQGRSISPPSGLPQPHGGALRQQEGDRRSTLHLLQGGDEKKVNLVLGDGRSLGLTIRGGAEYGLGIYITGVDPGSEAEGSGLKVGDQILEVNGRSFLNILHDEAVRLLKSSRHLILTVKDVGRLPHARTTVDETKWIAS
notes: WHRN, residues 33-377 (NTD, PDZ1 and PDZ2) of UniProtKB Q9P202; Cloned into pET.32M.3C; Named Trx-WHRN NPDZ12 in SEC-MALS; also called Trx-WHRN NPDZ12; Whirlin; source: E. coli BL21 (DE3), purified (Ni2+-NTA, size-exclusion chromatography); not shown: Trx, N-terminal, kept

The target of series [1] is B3. The series is described as follows: ITC; MicroCal iTC200, 25 °C; 50 mM tris pH 7.5-8.0, 300 mM NaCl, 1 mM DTT, 1 mM EDTA; cell 20–50 µM, syringe 400–800 µM; one-site binding model. For orientation: In ITC the heat of successive injections is recorded.
The target of series [2] is T1, WHRN NPDZ1 (UniProt Q9P202 33-239).
T1 chain: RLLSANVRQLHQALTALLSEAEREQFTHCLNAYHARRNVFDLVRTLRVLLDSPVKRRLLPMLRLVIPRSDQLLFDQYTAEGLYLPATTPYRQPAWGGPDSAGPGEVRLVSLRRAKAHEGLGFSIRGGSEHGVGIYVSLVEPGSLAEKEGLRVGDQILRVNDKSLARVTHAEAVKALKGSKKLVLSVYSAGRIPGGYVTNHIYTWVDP
Described as above.

The next series concerns the target WHRN PDZ1 (UniProt Q9P202). The description is as above.
Another series addresses T2, WHRN NTD (UniProt Q9P202 33-117).
T2 chain: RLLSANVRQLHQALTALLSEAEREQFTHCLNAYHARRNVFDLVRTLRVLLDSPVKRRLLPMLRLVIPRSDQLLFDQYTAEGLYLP
The series is described as follows: ITC.

The target in a further series is USH2A-CT (UniProt Q2QI47). The series is described as follows: SEC-MALS; single proteins at 50 μM; Superose 12 10/300 GL or Superdex 200 increase 10/300 GL; 50 mM tris, 300 mM NaCl, 1 mM DTT, 1 mM EDTA. In general terms: In gel filtration, larger molecules generally elute earlier.
The target in series [3] is B3. Put plainly: SEC-MALS; mixtures, each component around 30 µM; Superose 12 10/300 GL or Superdex 200 increase 10/300 GL; 50 mM tris, 300 mM NaCl, 1 mM DTT, 1 mM EDTA.
The target of the next series is T3, WHRN NPDZ12 R223H (UniProt Q9P202 33-377, R223H).
T3 construct: WHRN, residues 33-377 of UniProtKB Q9P202 with the deafness-related mutation R223H; source: E. coli BL21 (DE3), purified (Ni2+-NTA, size-exclusion chromatography)
T3 sequence (looked up): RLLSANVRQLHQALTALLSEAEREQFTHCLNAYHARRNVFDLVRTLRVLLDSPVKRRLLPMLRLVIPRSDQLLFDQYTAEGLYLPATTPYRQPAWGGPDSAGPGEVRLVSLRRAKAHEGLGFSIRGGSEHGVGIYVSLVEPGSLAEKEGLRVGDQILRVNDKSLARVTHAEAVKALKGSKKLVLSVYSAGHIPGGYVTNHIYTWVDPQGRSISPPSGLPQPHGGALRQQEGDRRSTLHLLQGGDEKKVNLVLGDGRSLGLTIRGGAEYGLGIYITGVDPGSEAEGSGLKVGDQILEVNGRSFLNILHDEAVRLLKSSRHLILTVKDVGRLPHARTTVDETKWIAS
The series is described as follows: ITC; MicroCal iTC200, 25 °C; 50 mM tris pH 7.5-8.0, 300 mM NaCl, 1 mM DTT, 1 mM EDTA; cell 20–50 µM, syringe 400–800 µM; one-site binding model.

A further series deals with T4, WHRN NPDZ12 T110A (UniProt Q9P202 33-377, T110A).
T4 construct: WHRN, residues 33-377 of UniProtKB Q9P202 with the deafness-related mutation T110A; source: E. coli BL21 (DE3), purified (Ni2+-NTA, size-exclusion chromatography)
T4 sequence (looked up): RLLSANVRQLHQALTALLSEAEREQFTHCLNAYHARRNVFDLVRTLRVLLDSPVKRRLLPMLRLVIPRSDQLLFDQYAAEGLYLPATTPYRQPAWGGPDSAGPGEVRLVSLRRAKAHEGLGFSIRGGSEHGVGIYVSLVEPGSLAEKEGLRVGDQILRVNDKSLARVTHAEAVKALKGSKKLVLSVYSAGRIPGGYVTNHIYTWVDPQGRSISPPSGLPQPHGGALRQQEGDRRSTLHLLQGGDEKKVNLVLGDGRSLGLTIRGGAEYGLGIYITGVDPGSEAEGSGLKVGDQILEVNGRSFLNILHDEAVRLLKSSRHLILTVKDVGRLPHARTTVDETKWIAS
The description is as above.

The target in another series is T5, WHRN NPDZ12 A64D (UniProt Q9P202 33-377, A64D).
T5 construct: WHRN, residues 33-377 of UniProtKB Q9P202 with the deafness-related mutation A64D; Mutant made by PCR-based mutagenesis; the ClinVar ids are tied to the mutations by their printed order; source: E. coli BL21 (DE3), purified (Ni2+-NTA, size-exclusion chromatography)
T5 sequence (looked up): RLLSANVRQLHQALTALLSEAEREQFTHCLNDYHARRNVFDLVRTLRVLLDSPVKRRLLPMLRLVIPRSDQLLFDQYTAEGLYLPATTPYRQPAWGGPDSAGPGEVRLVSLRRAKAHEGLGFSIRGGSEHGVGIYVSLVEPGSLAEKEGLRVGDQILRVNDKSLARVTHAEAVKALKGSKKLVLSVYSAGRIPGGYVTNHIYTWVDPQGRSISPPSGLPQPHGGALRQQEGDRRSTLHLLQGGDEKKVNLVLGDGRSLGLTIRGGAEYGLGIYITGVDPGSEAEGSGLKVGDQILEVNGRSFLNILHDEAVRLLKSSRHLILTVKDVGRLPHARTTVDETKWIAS
The series is described as above.

Series [4] deals with T1, WHRN NPDZ1. The series is described as follows: ITC.
Series [5] concerns the molecule itself. The series is described as follows: SEC-MALS; single proteins at 50 μM; Superose 12 10/300 GL or Superdex 200 increase 10/300 GL; 50 mM tris, 300 mM NaCl, 1 mM DTT, 1 mM EDTA.
The target in the next series is T6, PDZD7 PDZ12 G228R (UniProt E9Q9W7 84-289, G228R).
T6 sequence: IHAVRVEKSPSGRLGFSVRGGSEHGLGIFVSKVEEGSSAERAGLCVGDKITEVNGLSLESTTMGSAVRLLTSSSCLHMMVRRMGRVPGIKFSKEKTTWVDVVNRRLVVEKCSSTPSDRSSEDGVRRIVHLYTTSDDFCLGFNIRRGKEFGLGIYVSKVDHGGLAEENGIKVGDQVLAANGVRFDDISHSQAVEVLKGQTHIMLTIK
The series is described as follows: ITC.

The target of the next series is T7, PDZD7 PDZ12 M285R (UniProt E9Q9W7 84-289, M285R).
T7 sequence: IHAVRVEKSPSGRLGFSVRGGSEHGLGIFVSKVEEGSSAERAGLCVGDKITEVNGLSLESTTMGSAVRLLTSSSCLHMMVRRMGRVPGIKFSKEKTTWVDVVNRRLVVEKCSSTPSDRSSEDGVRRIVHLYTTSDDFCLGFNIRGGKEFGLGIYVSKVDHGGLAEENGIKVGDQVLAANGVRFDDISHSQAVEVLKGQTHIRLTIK
The series is described as follows: ITC.

Another series addresses PDZD7 PDZ12 (UniProt E9Q9W7). The series is described as follows: ITC; MicroCal iTC200, 25 °C; 50 mM tris pH 7.5-8.0, 300 mM NaCl, 1 mM DTT, 1 mM EDTA; cell 20–50 µM, syringe 400–800 µM; one-site binding model.
For a further series, the target named is PDZD7 PDZ1 (UniProt E9Q9W7). The series is described as above.
Sequence of PDZD7 PDZ1 (E9Q9W7 81-167): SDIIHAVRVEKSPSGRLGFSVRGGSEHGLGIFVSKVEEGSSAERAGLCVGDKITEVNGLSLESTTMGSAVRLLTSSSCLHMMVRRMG

Where “and” joins values, the source holds several entries; their conditions need not be identical. Equal values may be shown once. Read-outs that look alike come from different tables or passages of the source.

Molecule “ADGRV1-CT △PBM (from UniProt Q8VHN7 6239-6298) (domain or fragment)” gave a dissociation constant (Kd) in the series with WHRN NPDZ12 [1] of 9.5 µM.

B1: USH2A-CT (domain or fragment)
chain: PSQSQLSHAYSQSSLHRSVSQLMDMADKKVVTEDSLWETIMGHSSGLYVDEEELMNAIKGFSSVTKEHTAFTDTHL
As for B1, the equilibrium dissociation constant (Kd) was found to be 5.1 µM with WHRN NPDZ1 [2], 1.2 µM in the series with WHRN PDZ1, 0.68 µM with WHRN NPDZ12 [1] and 19 µM with WHRN NTD. Besides, the stoichiometry N with USH2A-CT amounted to 2.

B2: ADGRV1-CT (domain or fragment, UniProt Q8VHN7 6239-6298, looked up)
chain: GSLIADEESQEFDDLIFALKTGAGLSVSDNESGQGSQEGGTLTDSQIVELRRIPIADTHL
notes: ADGRV1 cytoplasmic region, residues 6239-6298 of UniProtKB Q8VHN7; Named Trx-ADGRV1-CT in SEC-MALS; also called Trx-ADGRV1-CT; VLGR1-CT; source: E. coli BL21 (DE3), purified (Ni2+-NTA, size-exclusion chromatography); not shown: Trx, N-terminal, kept
In the case of B2, the “stoichiometry N” value with WHRN NPDZ12 [3] (both partners purified) was 2 copies per WHRN dimer and 1 copy per WHRN dimer (three proteins mixed). The Kd was 3.3 µM with WHRN NPDZ12 R223H (both partners purified); 0.55 µM in the series with WHRN NPDZ12 T110A (both partners purified); 0.41 µM in the series with WHRN NPDZ12 A64D (both partners purified); ~1.4 µM with WHRN NPDZ12 [1] (both partners purified); 31 µM with WHRN NTD; 9 µM with WHRN NPDZ1 [4].

Take B3: the “stoichiometry N” value in series [5] was determined as 2.

Turning to GHSSGLYVDEEELMNAIKGFSSVTKEHTAFTDTHL (domain or fragment) [USH2A-CT (Short, S)], in the series with WHRN NPDZ12 [3], the stoichiometry N (copies per WHRN dimer) amounted to 2. The stoichiometry N with WHRN NPDZ12 [3] (scale: copy per WHRN dimer) was 1. In addition, the Kd with PDZD7 PDZ12 G228R was found to be 56 µM; with PDZD7 PDZ12 M285R it was 8.5 µM; in the series with PDZD7 PDZ12, 15 µM; with PDZD7 PDZ1, 66 µM; with WHRN NPDZ12 R223H, 4.7 µM; with WHRN NPDZ12 T110A it was 16 µM. Besides, the results for the Kd with WHRN NPDZ12 A64D and with WHRN NPDZ12 [1] were 5.5 µM and 2.7 µM, respectively.

B4: WHRN NTD (domain or fragment, UniProt Q9P202 33-117, looked up)
chain: RLLSANVRQLHQALTALLSEAEREQFTHCLNAYHARRNVFDLVRTLRVLLDSPVKRRLLPMLRLVIPRSDQLLFDQYTAEGLYLP
notes: WHRN N-terminal domain, residues 33-117 of UniProtKB Q9P202; also called N-terminal domain; HHD1; source: E. coli BL21 (DE3), purified (Ni2+-NTA, size-exclusion chromatography)
B4: the binding result in [5] is recorded as “binds”.

The term Kd denotes the concentration at which binding is half-saturated. As a reminder, the stoichiometry N is the number of molecules, sites or subunits per partner or assembly.
